Measurements taken from publication PMC5421356 (Molecular genetics and metabolism, 2017).

Target: the molecule itself
Test: SEC

B1: human tryptophan 2,3-dioxygenase (40-390), Met108Ile variant (enzyme, UniProt P48775 40-390, looked up)
chain: LIYGNYLHLEKVLNAQELQSETKGNKIHDEHLFIITHQAYELWFKQILWELDSVREIFQNGHVRDERNILKVVSRMHRVSVILKLLVQQFSILETMTALDFNDFREYLSPASGFQSLQFRLLENKIGVLQNMRVPYNRRHYRDNFKGEENELLLKSEQEKTLLELVEAWLERTPGLEPHGFNFWGKLEKNITRGLEEEFIRIQAKEESEEKEEQVAEFQKQKEVLLSLFDEKRHEHLLSKGERRLSYRALQGALMIYFYREEPRFQVPFQLLTSLMDIDSLMTKWRYNHVCMVHRMLGSKAGTGGSSGYHYLRSTVSDRYKVFVDLFNLSTYLIPRHWIPKMNPTIHKFLY
- stoichiometry N: 4
